In patent US5354664:
One block for each substance: values may come before it.

Legend:
human fibrinogen (human) = human fibrinogen (human) (UniProt P02671)
[1] = molecular target: bovine fibrinogen (bovine)
bovine thrombin (bovine) [2] = molecular target: bovine thrombin (bovine) (UniProt P00735)
bovine thrombin (bovine) [3] = molecular target: bovine thrombin (bovine) (UniProt P00735); remark: listed apart in the source
bovine thrombin (bovine) [4] = molecular target: bovine thrombin (bovine) (UniProt P00735); remark: listed apart in the source

Chain of human urine derived thrombin-binding substance obtained using a recombinant DNA technique (r-UTM) (receptor) (chain): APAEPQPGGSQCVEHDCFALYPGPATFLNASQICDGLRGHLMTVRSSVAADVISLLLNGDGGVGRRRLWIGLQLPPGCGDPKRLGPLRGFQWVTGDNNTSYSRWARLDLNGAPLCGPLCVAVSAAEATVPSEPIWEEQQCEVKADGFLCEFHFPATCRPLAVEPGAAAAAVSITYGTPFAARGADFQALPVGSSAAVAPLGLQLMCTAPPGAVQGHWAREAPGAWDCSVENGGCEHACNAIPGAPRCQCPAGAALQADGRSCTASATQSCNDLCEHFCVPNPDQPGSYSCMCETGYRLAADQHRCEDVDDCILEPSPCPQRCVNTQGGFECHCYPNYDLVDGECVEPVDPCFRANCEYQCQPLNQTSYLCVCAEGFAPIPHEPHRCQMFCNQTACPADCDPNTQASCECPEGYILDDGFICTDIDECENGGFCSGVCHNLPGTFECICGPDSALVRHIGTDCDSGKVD

clotting time, control, ATIII (-) (human fibrinogen (human)): 43.3 s
Coagulation time (sec), control [1]: 28.1 s
Substance: bovine thrombin (from UniProt P00735) (enzyme)

IC50 (time required for the coagulation) (bovine thrombin (bovine) [2]): 80 nM
clotting time, ATIII (+) (human antithrombin III 250 µg/ml) (bovine thrombin (bovine) [3]): 80.8 s
clotting time, ATIII (-) (bovine thrombin (bovine) [3]): 61.8 s
Coagulation time (bovine thrombin (bovine) [4]): 29.6 s
Substance: human urine derived thrombin-binding substance obtained using a recombinant DNA technique (r-UTM) (receptor)

clotting time, control, ATIII (+) (bovine thrombin (bovine) [3]): 49.5 s
Substance: human antithrombin III (from UniProt P01008)
